Changes are numbered by the printed parent chain.
Tests used:
[1] = test system: T1, Affinity-purified GST-tagged wild type (WT) hXBP1s
T1 sequence: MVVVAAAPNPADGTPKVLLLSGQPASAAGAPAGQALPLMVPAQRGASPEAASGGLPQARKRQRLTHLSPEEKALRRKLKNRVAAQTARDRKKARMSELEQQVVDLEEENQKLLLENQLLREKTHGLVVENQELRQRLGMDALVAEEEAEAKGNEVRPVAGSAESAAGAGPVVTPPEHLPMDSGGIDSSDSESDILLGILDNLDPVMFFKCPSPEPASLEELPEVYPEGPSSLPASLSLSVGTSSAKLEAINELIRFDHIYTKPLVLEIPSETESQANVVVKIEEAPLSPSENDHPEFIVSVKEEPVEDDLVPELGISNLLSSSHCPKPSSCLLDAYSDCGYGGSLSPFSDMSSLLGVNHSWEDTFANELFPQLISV

[2] = test system: T2, Affinity-purified GST-tagged hXBP1s S288A mutant
T2 sequence: T1 sequence with S288A

Active recombinant human JNK2α2 (Millipore)
in vitro kinase assay, phosphorylation in the presence of ^32P (autoradiography) [1]: JNK1, JNK2 or JNK3 was sufficient to directly phosphorylate hXBP1s | in vitro kinase assay, phosphorylation in the presence of ^32P (autoradiography) [2]: mutation of Ser288 to A abolished JNKs-mediated phosphorylation of hXBP1s

From patent US11137400
